Residue numbers refer to the chain shown, from its start. Names may count otherwise. “And” between values parts separate entries of the source, which are not always exact repeats. Equal entries are not always repeated. “Also recorded” adds a separate entry of the source.
Tests used:
[1] = system: SR8D8 expressing transporter; assay: Glucose and xylose mixed sugar flask fermentation (20 g/L each); format: cell-based, S. cerevisiae; details: 20 g/L of glucose and xylose, YP medium
Procedure: (§1) For flask fermentation, a single colony was inoculated to 5 or 25 mL YPE ([…], 1% w/v yeast extract, 2% peptone, 5% ethanol) supplemented with 200 μg/ml of geneticin to obtain seed cultures. […] Flask fermentations were maintained at 30° C. and 250 rpm.
(§2) A xylose fermenting S. cerevisiae yeast (SR8) with HXT1-7Δ, GAL2Δ deletions was used for transporter screening and characterization (SR8D8). SR8D8 was grown in YPE medium/plate (10 g/L yeast extract, 20 g/L peptone, and 5 g/L ethanol). […] SRD8 strains transformed with plasmid containing KanMX marker conferring resistance to G418 (geneticin) were propagated on YPE supplemented with 200 μg/ml of geneticin. For growth and flask fermentation experiments all media was supplemented with 200 μg/ml of geneticin for plasmid maintenance. Biomass was calculated from the OD600 measured using a Biomate 5 UV-visible spectrophotometer (Fisher, NY, USA). All growth rates were measured using a Bioscreen C plate reader system (Growth Curves USA, Piscataway, NJ, USA). A 2 μL inoculum of fully grown culture was added into 200 μL YP (+200 μg/ml Geneticin) with varying concentrations of different sugars. A wide band filter (420-580 nm) was used to measure optical density. Bioscreen C values represent mean value from three biological replicates. In all cases, the Bioscreen C was set to maintain a temperature of 30° C. and high aeration through high continuous shaking.

[2] = system: SR8D8 expressing transporter; assay: Transporter screening for growth on glucose or xylose (Bioscreen C); format: cell-based, S. cerevisiae; details: glucose or xylose containing medium, OD600
Procedure: ScGal2 expressing SR8D8 were used as a positive control (FIG. 3). Most of the AtSWEETs and putative oleaginous transporters expressing strains were not able to grow on glucose or xylose.
as §2

[3] = substrate: OC[C@H]1OC(O)[C@H](O)[C@@H](O)[C@@H]1O; assay: cells, lysate or membranes; details: other: initial glucose uptake (5 s), 30° C., pH 6.5, 0.2 to 100 mM glucose, ± SEM in Table 1
[4] = system: SR8D8 expressing transporter; assay: Mixed sugar fermentation at industrially relevant sugar concentrations; format: cell-based, S. cerevisiae; details: 7% glucose and 4% xylose (70 g/L, 40 g/L)
Procedure: as §1

[5] = system: transporter-overexpressing SR8D8; assay: Inhibition of xylose uptake by glucose; format: cell-based, S. cerevisiae; details: 25 mM or 100 mM glucose
Procedure: SR8D8 containing the respective plasmid was grown on selective YPE medium to an OD600 of 1-1.5, harvested by centrifugation, and washed twice in ice-cold uptake buffer (100 mM potassium phosphate, pH 6.5). C14 labeled sugar uptake assay was done according to Boles and Oreb. Radioactivity was analyzed in a Beckman-Coulter LS6500 multi-purpose liquid scintillation counter (Beckman-Coulter, CA, USA).
Sugar solutions contained 0.135-0.608 μCi of D-[U-^14C]-glucose (290-300 mCi/mmol) or D-[1-^14C]-xylose (55 mCi/mmol) (PerkinElmer, MA, USA). Calculation of Km (Michaelis constant), Vmax (maximal initial uptake velocity), and K (inhibitor constant for competitive inhibition) was done by nonlinear regression analysis and global curve fitting in Prism 7 (GraphPad Software) with values of three independent measurements.

[6] = system: SR8D8 expressing transporter; assay: Sole glucose or xylose flask fermentation; format: cell-based, S. cerevisiae
Procedure: as §1, §2

B1: A175F: AtSWEET7 single mutation A175F (protein, UniProt Q8LBF7 1-258, looked up, variant A175F)
Bidirectional sugar …: MVFAHLNLLRKIVGIIGNFIALCLFLSPTPTFVRIVKKKSVEEYSPIPYLATLINCLVWVLYGLPTVHPDSTLVITINGTGILIEIVFLTIFFVYCGRQKQRLIISAVIAAETAFIAILAVLVLTLQHTTEKRTMSVGIVCCVFNVMMYASPLSVMKMVIKTKSVEFMPFWLSVFGFLNAGVWTIYALMPFDPFMAIPNGIGCLFGLAQLILYGAYYKSTKRIMAERENQPGYVGLSSAIARTGSEKTANTNQEPNNV
- glucose and xylose mixed sugar fermentation phenotype [1]: capable of improving glucose and xylose uptake rate

B2: AtSWEET5: Arabidopsis thaliana SWEET5 transporter polypeptide (protein, UniProt Q9FM10 1-240, looked up)
Bidirectional sugar …: MTDPHTARTIVGIVGNVISFGLFCAPIPTMVKIWKMKSVSEFKPDPYVATVLNCMMWTFYGLPFVQPDSLLVITINGTGLFMELVYVTIFFVFATSPVRRKITIAMVIEVIFMAVVIFCTMYFLHTTKQRSMLIGILCIVFNVIMYAAPLTVMKLVIKTKSVKYMPFFLSLANFMNGVVWVIYACLKFDPYILIPNGLGSLSGIIQLIIYITYYKTTNWNDDDEDKEKRYSNAGIELGQA
- glucose and xylose mixed sugar fermentation phenotype [1]: simultaneously utilize glucose and xylose
- growth / transport capacity on glucose or xylose [2]: capable of sustaining an efficient growth on glucose or xylose

B3: Saccharomyces cerevisiae ScGal2 (Gal2) transporter, SEQ ID NO:32 (Saccharomyces cerevisiae S288C) (protein)
chain: MAVEENNMPVVSQQPQAGEDVISSLSKDSHLSAQSQKYSNDELKAGESGSEGSQSVPIEIPKKPMSEYVTVSLLCLCVAFGGFMFGWDTGTISGFVVQTDFLRRFGMKHKDGTHYLSNVRTGLIVAIFNIGCAFGGIILSKGGDMYGRKKGLSIVVSVYIVGIIIQIASINKWYQYFIGRIISGLGVGGIAVLCPMLISEIAPKHLRGTLVSCYQLMITAGIFLGYCTNYGTKSYSNSVQWRVPLGLCFAWSLFMIGALTLVPESPRYLCEVNKVEDAKRSIAKSNKVSPEDPAVQAELDLIMAGIEAEKLAGNASWGELFSTKTKVFQRLLMGVFVQMFQQLTGNNYFFYYGTVIFKSVGLDDSFETSIVIGVVNFASTFFSLWTVENLGHRKCLLLGAATMMACMVIYASVGVTRLYPHGKSQPSSKGAGNCMIVFTCFYIFCYATTWAPVAWVITAESFPLRVKSKCMALASASNWVWGFLIAFFTPFITSAINFYYGYVFMGCLVAMFFYVFFFVPETKGLSLEEIQELWEEGVLPWKSEGWIPSSRRGNNYDLEDLQHDDKPWYKAMLE
- Km [3]: 1613 µM and 1600 ± 200 µM

B4: ScGal2: S. cerevisiae Gal2 hexose transporter, control; SEQ ID NO:32 (protein)
chain: B3 chain
modifications: protein sequence alignmnet of ScGal2
- glucose and xylose mixed sugar fermentation phenotype [1]: sequential fermentation
- glucose and xylose mixed sugar fermentation phenotype ([1]; listed as GAL2): transport both glucose and xylose in a sequential manner; also recorded: sequential manner of sugar utilization
- mixed sugar utilization profile at high sugar [4]: sequential utilization of glucose and xylose
- inhibition of xylose transport by glucose (in words) [5]: complete xylose inhibition even at the presence of 25 mM glucose

B5: Lipomyces starkeyi LST1_205437 transporter, wild type, SEQ ID NO: 4 (Lipomyces starkeyi NRRL Y-11557) (protein)
chain: MGFLGFLNRSQASEPVEKESTATTPSEGRTPQRPLSPAVGVPLEQDFETQLSAKDAPLLAFILGGVASVGGFMFGYQTGQISGFLEMSDFKTRFAACNSQTGQCTFSAARQGTIVGLFSIGTLIGSLIAAPIADRIGRRLTISFWAFFFMIGTVLEISSSHVWVQFAMGRFVGGLGIGALSVVVPMYQSESTPRMIRGVIVSSYQLMVTLGIWLAYMINWGTESLQGSQSWRITNGMSFLWALVLGIAILGLPESPRYAYRVGREEEARKNMARLYKLSPNHPIINLEIQEIQEKLDAERVGGDHPWYEIFTGPRMLYRTILGMVLQAGQQLTGANYFFYYGTTVFSATGLSNSYVTQIILGSVNVGGTIAGLWLIENCGRRKALMGGAAWMFMCFMVFAFVGHFSLDHQNPEATPQAGAALVVFSCLFIIAFAMTWGPIVWAIVGELYPARYRATCMGLATSSNWLFNFLIGFFTTFITGDIDYLYGLVFAGCCFALFFIVYFFVIETKGRSLEEIDTMYVLHVNPINSAKWDSSQLMRDGDGLVNTDDLYLEAGGNRFAKDEHSAHEMIPSHDENAPGPSHTSHADIEKAESSGAESRDAL
- Km [3]: 4975 µM
- Vmax [3]: 46.89 nmol/min/mg

B6: AtSWEET1: Arabidopsis thaliana SWEET1 transporter polypeptide, SEQ ID NO:1 (protein)
chain: MNIAHTIFGVFGNATALFLFLAPSITFKRIIKNKSTEQFSGIPYPMTLLNCLLSAWYGLPFVSKDNTLVSTINGTGAVIETVYVLIFLFYAPKKEKIKIFGIFSCVLAVFATVALVSLFALQGNGRKLFCGLAATVFSIIMYASPLSIMRLVVKTKSVEFMPFFLSLFVFLCGTSWFVYGLIGRDPFVAIPNGFGCALGTLQLILYFIYCGNKGEKSADAQKDEKSVEMKDDEKKQNVVNGKQDLQV
modifications: Arabidopsis thaliana SWEET1 (AtSWEET1) transporter polypeptide
- glucose and xylose mixed sugar fermentation phenotype [1]: complete preference for glucose with negligible xylose consumption; also recorded: solo glucose fermentation
- growth / transport capacity on glucose or xylose [2]: can sustain growth of SR8D8 in glucose and xylose containing medium; also recorded: glucose transporter with almost no xylose transport capacity
- sole sugar fermentation performance ([6]; glucose or xylose conditions, YP medium): robust glucose fermentation but inefficient xylose fermentation
- xylose consumption ([6]; xylose fermentation, within 50 h): 5 g/L

B7: F168A: AtSWEET1 single mutation F168A (protein, UniProt Q8L9J7 1-247, looked up, variant F168A)
Bidirectional sugar …: B6 chain with F168A
- glucose and xylose mixed sugar fermentation phenotype [1]: capable of improving both glucose and xylose uptake rate

B8: AtSWEET4: Arabidopsis thaliana SWEET4 transporter polypeptide (protein, UniProt Q944M5 1-251, looked up)
Bidirectional sugar …: MVNATVARNIAGICGNVISLFLFLSPIPTFITIYKKKKVEEYKADPYLATVLNCALWVFYGLPMVQPDSLLVITINGTGLAIELVYLAIFFFFSPTSRKVKVGLWLIGEMVFVGIVATCTLLLFHTHNQRSSFVGIFCVIFVSLMYIAPLTIMSKVIKTKSVKYMPFSLSLANFLNGVVWVIYALIKFDLFILIGNGLGTVSGAVQLILYACYYKTTPKDDEDEEDEENLSKVNSQLQLSGNSGQAKRVSA
- glucose and xylose mixed sugar fermentation phenotype [1]: co-consumption of glucose and xylose with a faster glucose consumption rate than that of xylose; also recorded: co-fermentation with glucose preference
- glucose and xylose mixed sugar fermentation phenotype ([1]; listed as SWEET4): simultaneously utilize glucose and xylose
- growth / transport capacity on glucose or xylose [2]: substantial growth on xylose and glucose; also recorded: both glucose and xylose transport capacity
- growth / transport capacity on glucose or xylose ([2]; listed as SWEET4): capable of sustaining an efficient growth on glucose or xylose

Source: patent US12686846B2, “Plant sweet and yeast MSF transporter capable of transporting different sugars simultaneously” (THE BOARD OF TRUSTEES OF THE UNIVERSITY OF ILLINOIS, priority 2020, dated 2026)
